# Results taken from patent publication US20250076311A1 (Chugai, published 2025).
# Substitutions are numbered along the chain they refer to. Names and notes keep the numbering of the source.
# T1: human FcγRIIaR extracellular domain, His-tagged (human, UniProt P12318 34-217)
# T1 construct: also called human FcgRIIaR; FcγRIIa type R
# T1 chain: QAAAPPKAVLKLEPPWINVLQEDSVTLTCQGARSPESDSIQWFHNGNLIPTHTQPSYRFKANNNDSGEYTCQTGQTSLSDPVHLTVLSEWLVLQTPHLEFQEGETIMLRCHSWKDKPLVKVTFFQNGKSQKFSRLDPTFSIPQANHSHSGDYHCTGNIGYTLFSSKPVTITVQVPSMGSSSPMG
# T2: human FcγRIIaH extracellular domain, His-tagged (human, UniProt P12318 34-217)
# T2 construct: also called human FcgRIIaH; FcγRIIa type H
# T2 sequence: T1 chain with R134H
# T3: human FcγRIIb extracellular domain, His-tagged (human, UniProt P31994 43-217)
# T3 construct: also called human FcgRIIb
# T3 sequence: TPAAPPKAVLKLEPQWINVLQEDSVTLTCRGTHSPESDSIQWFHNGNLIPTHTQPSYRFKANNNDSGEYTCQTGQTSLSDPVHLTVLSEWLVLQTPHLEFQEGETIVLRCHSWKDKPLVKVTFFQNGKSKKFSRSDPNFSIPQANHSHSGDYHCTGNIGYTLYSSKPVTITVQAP
# B1: GpH7-B3 G236E / GpL16-k0 (antibody, human IgG1, kappa)
# heavy: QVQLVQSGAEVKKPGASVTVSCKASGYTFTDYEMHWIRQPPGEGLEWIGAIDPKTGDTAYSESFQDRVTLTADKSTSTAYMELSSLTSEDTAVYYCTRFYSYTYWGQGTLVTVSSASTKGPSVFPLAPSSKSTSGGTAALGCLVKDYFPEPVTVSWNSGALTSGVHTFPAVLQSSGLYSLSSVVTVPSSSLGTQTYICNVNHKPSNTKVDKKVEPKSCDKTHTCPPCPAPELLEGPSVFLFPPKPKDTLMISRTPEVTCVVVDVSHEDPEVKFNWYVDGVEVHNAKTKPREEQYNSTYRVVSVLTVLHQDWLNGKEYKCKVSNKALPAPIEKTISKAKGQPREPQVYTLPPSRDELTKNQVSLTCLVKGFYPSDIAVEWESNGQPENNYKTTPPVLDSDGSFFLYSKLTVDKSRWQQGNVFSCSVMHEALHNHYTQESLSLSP
# light: DIVMTQSPLSLPVTPGEPASISCQASESLVHSNRNTYLHWYLQKPGQSPQLLIYKVSNRFSGVPDRFSGSGSGTDFTLKISRVEAEDVGVYYCSQNTHVPPTFGQGTKVEIERTVAAPSVFIFPPSDEQLKSGTASVVCLLNNFYPREAKVQWKVDNALQSGNSQESVTEQDSKDSTYSLSSTLTLSKADYEKHKVYACEVTHQGLSSPVTKSFNRGEC
# notes: also called B3 variant G236E
# B2: GpH7-B3 K334I / GpL16-k0 (antibody, human IgG1, kappa)
# heavy: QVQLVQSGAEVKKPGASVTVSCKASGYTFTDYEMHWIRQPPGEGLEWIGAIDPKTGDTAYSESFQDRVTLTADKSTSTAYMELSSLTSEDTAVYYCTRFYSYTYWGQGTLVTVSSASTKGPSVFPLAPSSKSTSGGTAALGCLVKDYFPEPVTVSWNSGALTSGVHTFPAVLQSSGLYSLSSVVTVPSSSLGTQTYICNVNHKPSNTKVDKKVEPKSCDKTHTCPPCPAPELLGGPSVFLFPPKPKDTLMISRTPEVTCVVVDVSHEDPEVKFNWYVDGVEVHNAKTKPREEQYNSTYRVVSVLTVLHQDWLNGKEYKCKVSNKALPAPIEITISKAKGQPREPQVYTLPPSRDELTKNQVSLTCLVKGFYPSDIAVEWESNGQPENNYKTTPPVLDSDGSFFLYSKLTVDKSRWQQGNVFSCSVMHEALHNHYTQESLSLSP
# light: B1 light
# notes: also called B3 variant K334I
# B3: GpH7-B3 K326T / GpL16-k0 (antibody, human IgG1, kappa)
# heavy: not shown
# light: B1 light
# notes: also called B3 variant K326T
# B4: GpH7-B3 Q295L / GpL16-k0 (antibody, human IgG1, kappa)
# heavy: not shown
# light: B1 light
# notes: also called B3 variant Q295L
# B5: GpH7-B3 K334V / GpL16-k0 (antibody, human IgG1, kappa)
# heavy: not shown
# light: B1 light
# notes: also called B3 variant K334V
# B6: GpH7-B3 I332D / GpL16-k0 (antibody, human IgG1, kappa)
# heavy: not shown
# light: B1 light
# notes: also called B3 variant I332D
# B7: GpH7-B3 S239V / GpL16-k0 (antibody, human IgG1, kappa)
# heavy: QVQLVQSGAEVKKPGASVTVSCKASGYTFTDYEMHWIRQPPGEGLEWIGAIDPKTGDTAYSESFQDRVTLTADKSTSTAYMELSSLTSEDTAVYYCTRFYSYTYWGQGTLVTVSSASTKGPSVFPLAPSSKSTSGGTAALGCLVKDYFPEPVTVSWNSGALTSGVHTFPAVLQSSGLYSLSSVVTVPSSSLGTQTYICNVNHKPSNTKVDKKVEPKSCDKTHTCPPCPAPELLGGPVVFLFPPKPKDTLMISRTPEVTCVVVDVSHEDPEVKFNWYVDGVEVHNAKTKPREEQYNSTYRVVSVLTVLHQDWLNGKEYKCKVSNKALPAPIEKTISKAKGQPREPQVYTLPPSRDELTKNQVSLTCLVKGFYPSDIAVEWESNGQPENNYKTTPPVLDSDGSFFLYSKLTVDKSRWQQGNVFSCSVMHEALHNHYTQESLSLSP
# light: B1 light
# notes: also called B3 variant S239V
# B8: GpH7-B3 S239N / GpL16-k0 (antibody, human IgG1, kappa)
# heavy: not shown
# light: B1 light
# notes: also called B3 variant S239N
# B9: GpH7-B3 K334Y / GpL16-k0 (antibody, human IgG1, kappa)
# heavy: not shown
# light: B1 light
# notes: also called B3 variant K334Y
# B10: GpH7-B3 L328T / GpL16-k0 (antibody, human IgG1, kappa)
# heavy: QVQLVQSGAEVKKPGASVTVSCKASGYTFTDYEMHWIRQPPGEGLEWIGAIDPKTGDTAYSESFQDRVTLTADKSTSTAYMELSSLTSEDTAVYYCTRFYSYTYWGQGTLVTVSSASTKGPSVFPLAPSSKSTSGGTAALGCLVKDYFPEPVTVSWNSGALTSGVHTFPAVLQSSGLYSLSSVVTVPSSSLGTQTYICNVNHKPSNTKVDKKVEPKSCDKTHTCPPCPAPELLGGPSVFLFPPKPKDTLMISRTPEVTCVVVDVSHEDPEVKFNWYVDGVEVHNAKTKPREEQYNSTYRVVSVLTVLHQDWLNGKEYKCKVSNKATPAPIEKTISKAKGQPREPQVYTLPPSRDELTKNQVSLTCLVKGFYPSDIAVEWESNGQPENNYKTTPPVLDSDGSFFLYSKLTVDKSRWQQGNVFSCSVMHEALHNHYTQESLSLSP
# light: B1 light
# notes: also called B3 variant L328T
# B11: GpH7-B3 K334M / GpL16-k0 (antibody, human IgG1, kappa)
# heavy: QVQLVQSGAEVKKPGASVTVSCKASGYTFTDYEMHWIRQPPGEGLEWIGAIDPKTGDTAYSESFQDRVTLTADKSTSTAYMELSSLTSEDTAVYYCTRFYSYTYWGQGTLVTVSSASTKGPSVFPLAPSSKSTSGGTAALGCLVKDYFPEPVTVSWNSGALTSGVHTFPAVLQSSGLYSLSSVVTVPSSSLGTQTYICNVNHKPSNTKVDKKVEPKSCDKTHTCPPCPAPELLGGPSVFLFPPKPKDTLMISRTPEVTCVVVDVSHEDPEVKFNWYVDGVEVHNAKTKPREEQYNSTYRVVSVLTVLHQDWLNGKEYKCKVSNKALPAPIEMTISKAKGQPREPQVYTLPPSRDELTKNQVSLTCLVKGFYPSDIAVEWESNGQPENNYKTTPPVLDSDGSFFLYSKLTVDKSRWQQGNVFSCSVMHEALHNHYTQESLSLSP
# light: B1 light
# notes: also called B3 variant K334M
# B12: GpH7-B3 P331E / GpL16-k0 (antibody, human IgG1, kappa)
# heavy: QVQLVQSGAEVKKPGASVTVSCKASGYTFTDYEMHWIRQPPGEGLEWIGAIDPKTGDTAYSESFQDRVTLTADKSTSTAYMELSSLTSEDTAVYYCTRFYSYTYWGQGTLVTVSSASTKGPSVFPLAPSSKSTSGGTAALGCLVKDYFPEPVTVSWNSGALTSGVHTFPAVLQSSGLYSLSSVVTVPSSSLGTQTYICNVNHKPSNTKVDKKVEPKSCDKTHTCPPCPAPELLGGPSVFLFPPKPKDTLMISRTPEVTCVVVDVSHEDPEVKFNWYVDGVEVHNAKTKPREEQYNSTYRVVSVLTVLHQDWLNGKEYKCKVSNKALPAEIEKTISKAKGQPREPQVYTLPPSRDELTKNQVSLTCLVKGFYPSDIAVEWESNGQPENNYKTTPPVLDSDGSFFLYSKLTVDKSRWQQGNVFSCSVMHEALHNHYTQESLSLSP
# light: B1 light
# notes: also called B3 variant P331E
# B13: GpH7-B3 H268E / GpL16-k0 (antibody, human IgG1, kappa)
# heavy: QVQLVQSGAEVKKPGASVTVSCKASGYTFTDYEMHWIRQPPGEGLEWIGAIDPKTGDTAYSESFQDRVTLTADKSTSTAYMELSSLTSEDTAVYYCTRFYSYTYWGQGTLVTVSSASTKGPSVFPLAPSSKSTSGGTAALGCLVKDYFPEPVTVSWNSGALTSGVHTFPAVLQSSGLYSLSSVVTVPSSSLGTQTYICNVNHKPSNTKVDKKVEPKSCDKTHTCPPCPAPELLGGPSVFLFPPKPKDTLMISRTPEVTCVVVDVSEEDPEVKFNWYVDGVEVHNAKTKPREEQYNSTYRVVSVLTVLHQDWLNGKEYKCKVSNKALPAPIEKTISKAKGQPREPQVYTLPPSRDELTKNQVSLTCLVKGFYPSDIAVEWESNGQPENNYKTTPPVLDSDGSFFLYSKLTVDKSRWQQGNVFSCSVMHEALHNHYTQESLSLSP
# light: B1 light
# notes: also called B3 variant H268E
# B14: GpH7-B3 H268D / GpL16-k0 (antibody, human IgG1, kappa)
# heavy: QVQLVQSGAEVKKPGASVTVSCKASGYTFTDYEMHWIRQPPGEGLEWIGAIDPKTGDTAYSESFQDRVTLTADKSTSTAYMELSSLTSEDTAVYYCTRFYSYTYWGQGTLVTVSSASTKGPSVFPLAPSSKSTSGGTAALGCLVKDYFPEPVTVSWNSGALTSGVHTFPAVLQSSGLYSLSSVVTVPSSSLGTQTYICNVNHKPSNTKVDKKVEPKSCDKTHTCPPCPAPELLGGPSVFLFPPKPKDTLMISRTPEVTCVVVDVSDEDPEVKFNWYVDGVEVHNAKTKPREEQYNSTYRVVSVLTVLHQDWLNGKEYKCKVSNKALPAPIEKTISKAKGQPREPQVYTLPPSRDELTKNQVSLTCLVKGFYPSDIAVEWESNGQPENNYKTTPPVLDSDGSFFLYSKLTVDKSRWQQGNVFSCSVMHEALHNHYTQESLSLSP
# light: B1 light
# notes: also called B3 variant H268D
# B15: GpH7-B3 G236S / GpL16-k0 (antibody, human IgG1, kappa)
# heavy: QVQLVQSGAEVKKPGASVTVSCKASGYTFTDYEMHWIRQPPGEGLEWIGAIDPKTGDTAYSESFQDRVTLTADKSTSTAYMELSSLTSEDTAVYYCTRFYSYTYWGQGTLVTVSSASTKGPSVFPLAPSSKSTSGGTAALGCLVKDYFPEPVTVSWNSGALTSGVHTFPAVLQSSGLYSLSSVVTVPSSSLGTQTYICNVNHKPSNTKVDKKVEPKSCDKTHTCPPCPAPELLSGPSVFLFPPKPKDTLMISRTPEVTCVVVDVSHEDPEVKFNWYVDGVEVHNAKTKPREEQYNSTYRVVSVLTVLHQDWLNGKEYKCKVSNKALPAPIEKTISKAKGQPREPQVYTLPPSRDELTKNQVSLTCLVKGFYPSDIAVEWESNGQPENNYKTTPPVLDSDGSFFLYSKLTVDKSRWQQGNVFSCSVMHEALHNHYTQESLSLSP
# light: B1 light
# notes: also called B3 variant G236S
# B16: GpH7-B3 L235W / GpL16-k0 (antibody, human IgG1, kappa)
# heavy: not shown
# light: B1 light
# notes: also called B3 variant L235W
# B17: GpH7-B3 P271G / GpL16-k0 (antibody, human IgG1, kappa)
# heavy: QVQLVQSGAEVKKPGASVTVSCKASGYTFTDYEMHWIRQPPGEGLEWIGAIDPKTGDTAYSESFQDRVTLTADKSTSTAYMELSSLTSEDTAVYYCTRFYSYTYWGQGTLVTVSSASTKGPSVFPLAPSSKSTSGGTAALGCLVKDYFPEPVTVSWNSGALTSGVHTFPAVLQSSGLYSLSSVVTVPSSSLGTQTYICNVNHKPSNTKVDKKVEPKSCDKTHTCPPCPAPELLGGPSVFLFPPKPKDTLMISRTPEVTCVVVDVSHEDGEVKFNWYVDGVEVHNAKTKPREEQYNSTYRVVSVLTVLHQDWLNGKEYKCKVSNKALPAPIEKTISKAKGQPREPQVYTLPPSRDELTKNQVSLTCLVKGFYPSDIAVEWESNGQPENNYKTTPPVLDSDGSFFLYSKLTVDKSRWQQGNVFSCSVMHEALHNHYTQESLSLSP
# light: B1 light
# notes: also called B3 variant P271G
# B18: GpH7-B3 L234W / GpL16-k0 (antibody, human IgG1, kappa)
# heavy: not shown
# light: B1 light
# notes: also called B3 variant L234W
# B19: GpH7-B3 L234Y / GpL16-k0 (antibody, human IgG1, kappa)
# heavy: not shown
# light: B1 light
# notes: also called B3 variant L234Y
# B20: GpH7-B3 S298L / GpL16-k0 (antibody, human IgG1, kappa)
# heavy: not shown
# light: B1 light
# notes: also called B3 variant S298L
# B21: GpH7-B3 S267A / GpL16-k0 (antibody, human IgG1, kappa)
# heavy: not shown
# light: B1 light
# notes: also called B3 variant S267A
# B22: GpH7-B3 K334D / GpL16-k0 (antibody, human IgG1, kappa)
# heavy: not shown
# light: B1 light
# notes: also called B3 variant K334D
# B23: GpH7-B3 S239I / GpL16-k0 (antibody, human IgG1, kappa)
# heavy: not shown
# light: B1 light
# notes: also called B3 variant S239I
# Target: T1, human FcγRIIaR extracellular domain, …
# Assay: SPR (Biacore), 25C, FcgR bound per antibody captured
row,Binder,Binding to human FcgRs (parent B3 = 100)
1,B1,131
2,B2,137
3,B3,127
4,B4,148
5,B5,132
6,B6,139
7,B7,71
8,B8,80
9,B9,131
10,B10,135
11,B11,127
12,B12,67
13,B13,132
14,B14,142
15,B15,161
16,B16,128
17,B17,130
18,B18,63
19,B19,50
20,B20,71
21,B21,125
22,B22,72
23,B23,75

# Target: T2, human FcγRIIaH extracellular domain, …
# Assay: as above
row,Binder,Binding to human FcgRs (parent B3 = 100)
1,B1,142
2,B2,169
3,B3,138
4,B4,128
5,B5,172
6,B6,129
7,B7,79
8,B8,99
9,B9,157
10,B10,156
11,B11,151
12,B12,96
13,B13,169
14,B14,173
15,B15,147
16,B16,136
17,B17,152
18,B18,64
19,B19,38
20,B20,99
21,B21,176
22,B22,97
23,B23,82

# Target: T3, human FcγRIIb extracellular domain, …
# Assay: as above
row,Binder,Binding to human FcgRs (parent B3 = 100)
1,B1,117
2,B2,174
3,B3,195
4,B4,156
5,B5,184
6,B6,198
7,B7,107
8,B8,124
9,B9,160
10,B10,179
11,B11,148
12,B12,100
13,B13,283
14,B14,307
15,B15,87
16,B16,130
17,B17,252
18,B18,90
19,B19,55
20,B20,114
21,B21,283
22,B22,108
23,B23,108

# Target: T4, human FcγRIIIaV extracellular domain, His-tagged (human, UniProt P08637 17-208)
# T4 construct: also called human FcgRIIIaV
# Assay: as above
# T4 sequence (P08637 17-208 F176V): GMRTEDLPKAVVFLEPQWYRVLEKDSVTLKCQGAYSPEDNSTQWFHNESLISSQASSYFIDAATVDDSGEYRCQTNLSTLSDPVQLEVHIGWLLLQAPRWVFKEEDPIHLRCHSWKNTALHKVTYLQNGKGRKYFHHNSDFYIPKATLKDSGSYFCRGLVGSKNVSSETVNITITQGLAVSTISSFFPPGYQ
row,Binder,Binding to human FcgRs (parent B3 = 100)
1,B1,33
2,B2,187
3,B3,164
4,B4,135
5,B5,176
6,B6,235
7,B7,48
8,B8,111
9,B9,188
10,B10,53
11,B11,183
12,B12,46
13,B13,205
14,B14,220
15,B15,33
16,B16,40
17,B17,93
18,B18,36
19,B19,63
20,B20,51
21,B21,145
22,B22,155
23,B23,47
